In the RNAGym collection of RNA variant scans (doi:10.1093/molbev/msab373):

B1: Azoarcus group I ribozyme (parent)
chain: GUGCCUUGCGCCGGGAAACCACGCAAGGGAUGGUGUCAAAUUCGGCGAAACCUAAGCGCCCGCCCGGGCGUAUGGCAACGCCGAGCCAAGCUUCGGCGCCUGCGCCGAUGAAGGUGUAGAGACUAGACGGCACCCACCUAAGGCAAACGCUAUGGUGAAGGCAUAGUCCAGGGAGUGGCGAAAGUCACACAAACCGG

Variants of: B1
Experiment: reverse-splicing fitness (ratio to wild type); higher = more active; in vitro selection; Mg2+ level not given
How it was run: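 An in vitro group I ribozyme library with randomized positions was T7-transcribed and gel-purified. In triplicate, 10 pmol RNA in EPPS pH 7.5 was reacted with 50 pmoles of a 30-nt RNA substrate for 1 h at 37 °C across several added MgCl2 levels (1–48 mM), then stopped with EDTA. Products were reverse transcribed from a substrate-complementary primer, PCR-amplified and sequenced (HiSeq 4000). Fitness is a variant's read proportion after selection over that before, normalised to wild type.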

Compared with GUGCCUUGCGCCGGGAAACCACGCAAGGGAUGGUGUCAAAUUCGGCGAAACCUAAGCGCCCGCCCGGGCGUAUGGCAACGCGGAGCCAAGCUUCGGCGCCUGCGCCGAUGGAGGUGUAGAGACUAGACGGCACCCACCUAAGGCUAACGCUAUGGUGAAGGCAUAGUCAAGGGAGGGGCGAAAGUCACACAAACCGG, GUGCCUUGCGCCGGGAAACCACGCAAGGGAUGGUGUCAAAUUCGGCGAAACCUAAGCGCCCGCCCGGGCGUAUGGCAACGCGGAGCCAAGCUUCGGCGCCUGCGCCGAUGGAGGUGUAGAGACUAGACGGCACCCACCUAAGGCAAACGAUAUGGUGAAGGCAUAGUCCAGGGAGUGGCGAAAGUCACACAAACCGG is higher in reverse-splicing fitness: 0.0052 for the first, 0.0393 for the second.

Compared with GUGCCUUGCGCCGGGAAACCACGCAAGGGAUGGUGUCAAAUUCGGCGAAACCUAAGCGCCCGCCCGGGCGUAUGGCAACGCGGAGCCAAGCUUCGGCGCCUGCGCCGAUGGAGGUGUAGAGACUAGACGGCACCCACCUAAGGCUAACGCUAUGGUGAAGGCAUAGUCGAGGGAGAGGCGAAAGUCACACAAACCGG, GUGCCUUGCGCCGGGAAACCACGCAAGGGAUGGUGUCAAAUUCGGCGAAACCUAAGCGCCCGCCCGGGCGUAUGGCAACGCGGAGCCAAGCUUCGGCGCCUGCGCCGAUGGAGGUGUAGAGACUAGACGGCACCCACCUAAGGCUAACGCUAUGGUGAAGGCAUAGUCGAGGGAGCGGCGAAAGUCACACAAACCGG is higher in reverse-splicing fitness: 0.0136 for the first, 0.0147 for the second.

First: GUGCCUUGCGCCGGGAAACCACGCAAGGGAUGGUGUCAAAUUCGGCGAAACCUAAGCGCCCGCCCGGGCGUAUGGCAACGCGGAGCCAAGCUUCGGCGCCUGCGCCGAUGGAGGUGUAGAGACUAGACGGCACCCACCUAAGGCUAACGCUAUGGUGAAGGCAUAGUCGAGGGAGGGGCGAAAGUCACACAAACCGG
Second: GUGCCUUGCGCCGGGAAACCACGCAAGGGAUGGUGUCAAAUUCGGCGAAACCUAAGCGCCCGCCCGGGCGUAUGGCAACGCGGAGCCAAGCUUCGGCGCCUGCGCCGAUGGAGGUGUAGAGACUAGACGGCACCCACCUAAGGCUAACGCUAUGGUGAAGGCAUAGUCCAGGGAGAGGCGAAAGUCACACAAACCGG
The reverse-splicing fitness of the first is lower: 0.00507 for the first, 0.257 for the second.

Going from GUGCCUUGCGCCGGGAAACCACGCAAGGGAUGGUGUCAAAUUCGGCGAAACCUAAGCGCCCGCCCGGGCGUAUGGCAACGCGGAGCCAAGCUUCGGCGCCUGCGCCGAUGGAGGUGUAGAGACUAGACGGCACCCACCUAAGGCUAACGCUAUGGUGAAGGCAUAGUCCAGGGAGGGGCGAAAGUCACACAAACCGG to GUGCCUUGCGCCGGGAAACCACGCAAGGGAUGGUGUCAAAUUCGGCGAAACCUAAGCGCCCGCCCGGGCGUAUGGCAACGCGGAGCCAAGCUUCGGCGCCUGCGCCGAUGGAGGUGUAGAGACUAGACGGCACCCACCUAAGGCUAACGCUAUGGUGAAGGCAUAGUCCAGGGAGCGGCGAAAGUCACACAAACCGG, the reverse-splicing fitness rises from 0.136 to 0.28.

Going from GUGCCUUGCGCCGGGAAACCACGCAAGGGAUGGUGUCAAAUUCGGCGAAACCUAAGCGCCCGCCCGGGCGUAUGGCAACGCGGAGCCAAGCUUCGGCGCCUGCGCCGAUGGAGGUGUAGAGACUAGACGGCACCCACCUAAGGCAAACGAUAUGGUGAAGGCAUAGUCAAGGGAGUGGCGAAAGUCACACAAACCGG to GUGCCUUGCGCCGGGAAACCACGCAAGGGAUGGUGUCAAAUUCGGCGAAACCUAAGCGCCCGCCCGGGCGUAUGGCAACGCGGAGCCAAGCUUCGGCGCCUGCGCCGAUGGAGGUGUAGAGACUAGACGGCACCCACCUAAGGCUAACGCUAUGGUGAAGGCAUAGUCUAGGGAGGGGCGAAAGUCACACAAACCGG, the reverse-splicing fitness falls from 0.0122 to 0.00489.

Going from GUGCCUUGCGCCGGGAAACCACGCAAGGGAUGGUGUCAAAUUCGGCGAAACCUAAGCGCCCGCCCGGGCGUAUGGCAACGCGGAGCCAAGCUUCGGCGCCUGCGCCGAUGGAGGUGUAGAGACUAGACGGCACCCACCUAAGGCUAACGCUAUGGUGAAGGCAUAGUCUAGGGAGAGGCGAAAGUCACACAAACCGG to GUGCCUUGCGCCGGGAAACCACGCAAGGGAUGGUGUCAAAUUCGGCGAAACCUAAGCGCCCGCCCGGGCGUAUGGCAACGCGGAGCCAAGCUUCGGCGCCUGCGCCGAUGGAGGUGUAGAGACUAGACGGCACCCACCUAAGGCUAACGCUAUGGUGAAGGCAUAGUCUAGGGAGCGGCGAAAGUCACACAAACCGG, the reverse-splicing fitness falls from 0.0142 to 0.0127.

Going from GUGCCUUGCGCCGGGAAACCACGCAAGGGAUGGUGUCAAAUUCGGCGAAACCUAAGCGCCCGCCCGGGCGUAUGGCAACGCGGAGCCAAGCUUCGGCGCCUGCGCCGAUGGAGGUGUAGAGACUAGACGGCACCCACCUAAGGCUAACGCUAUGGUGAAGGCAUAGUCGAGGGAGUGGCGAAAGUCACACAAACCGG to GUGCCUUGCGCCGGGAAACCACGCAAGGGAUGGUGUCAAAUUCGGCGAAACCUAAGCGCCCGCCCGGGCGUAUGGCAACGCGGAGCCAAGCUUCGGCGCCUGCGCCGAUGGAGGUGUAGAGACUAGACGGCACCCACCUAAGGCUAACGCUAUGGUGAAGGCAUAGUCUAGGGAGUGGCGAAAGUCACACAAACCGG, the reverse-splicing fitness rises from 0.0101 to 0.0127.

In the case of GUGCCUUGCGCCGGGAAACCACGCAAGGGAUGGUGUCAAAUUCGGCGAAACCUAAGCGCCCGCCCGGGCGUAUGGCAACGCGGAGCCAAGCUUCGGCGCCUGCGCCGAUGGAGGUGUAGAGACUAGACGGCACCCACCUAAGGCAAACGAUAUGGUGAAGGCAUAGUCAAGGGAGAGGCGAAAGUCACACAAACCGG, the reverse-splicing fitness is reported as 0.0211.
